From the RNAGym collection of RNA variant scans (doi:10.7554/elife.80360)

B1: Hairpin Ribozyme (parent)
chain: GUCCUCUUUCACGUGCGCGUGAAAGAGAGAAGUGAACCAGAGAAACACACGUUGUGGUAUAUUACCUGGUA

Variants of: B1
Assay: self-cleavage, relative activity (ratio to wild type); higher = more cleavage; co-transcriptional

With GUCCUCUUUCACGUGCGCGUGAAAGAGAGAAGUGAACCAGAGAAUCACACGUUGUCGUAUAUUACCUGGUA as the variant, how does the self-cleavage read?
The self-cleavage was 0.198.

With GUCCUCUUUCACGUGCGCGUGAAAGAGAGAAGUGAACCAGAGAAACACACGUUGUGGUAUAUUAUCUGGUA as the variant, how does the self-cleavage read?
The self-cleavage was 0.323.

For GUCCUCUUUCACGUGCGCGUGAAAGAGAGAAUUGAACCAGAGAAACACACGUUGUGGUAUAUUACCUGGUU, which self-cleavage is on record?
Its self-cleavage is 0.131.

Which self-cleavage does the source give for GUCCUCUUUCACGUGCGCGUGAAAGAGAGAAGUGAACCGGAGAAAAACACGUUGUGGUAUAUUACCUGGUA here?
The self-cleavage was 0.0818.

With GUCCUCUUUCACAUGCGCGAGAAAGAGAGAAGUGAACCAGAGAAACACACGUUGUGGUAUAUUACCUGGUA as the variant, how does the self-cleavage read?
The self-cleavage was 0.716.

Which self-cleavage does the source give for GUCCUCUUUCACGUGCGCGUGAAAGAGAGAAGUGAACCAGAGAAACACACGCUGUGGUAUCUUACCUGGUA here?
Its self-cleavage is 0.263.

For GUCCUCUUUCACGUGCGCGUGAAAGAGAGAAGUGAACCAGAGUAACACACGUUGUGGUAUACUACCUGGUA, which self-cleavage is on record?
Its self-cleavage is 0.107.

With GUCCUCUUUCACGUGCGCGUGAACGAGAGAAGUGAACCAGAGAAAGACACGUUGUGGUAUAUUACCUGGUA as the variant, how does the self-cleavage read?
The self-cleavage was 0.105.

For GUGCUCUUUCACGUGCGCGUGAAAGGGAGAAGUGAACCAGAGAAACACACGUUGUGGUAUAUUACCUGGUA, which self-cleavage is on record?
Its self-cleavage is 0.338.

For GUCCUCUUUCACGUGCGCGUGAAAGAGAGAAGUGAACCAGAGACACCCACGUUGUGGUAUAUUACCUGGUA, which self-cleavage is on record?
The self-cleavage was 0.121.

For GUCCUCUUUCACGUGCGCGUGAAAGAGAGAAGUGAACCAGAGAAACACACGUUGUGGUAAAUUACCUGUUA, which self-cleavage is on record?
The self-cleavage was 0.129.

For GUCCUCUAUCACGUGCGCGUGAAAGAGAGAAGUGAACGAGAGAAACACACGUUGUGGUAUAUUACCUGGUA, which self-cleavage is on record?
Its self-cleavage is 0.102.

For GUCCUCUUUCACGUGCGCGUGAAAGAGAGAAAUGAACCAGAGAAACACACGAUGUGGUAUAUUACCUGGUA, which self-cleavage is on record?
The self-cleavage was 0.24.

For GUCCUCUUUCACGUGCGCGUGAAAGCGAGAAGUGAACCAGAGAAACACACGUUGUGUUAUAUUACCUGGUA, which self-cleavage is on record?
The self-cleavage was 0.32.

For GUCCUGUUUCACGUGCGCGUGAAAGAGAGAAGUGAACCAGAGAACCACACGUUGUGGUAUAUUACCUGGUA, which self-cleavage is on record?
Its self-cleavage is 0.163.

Which self-cleavage does the source give for GUCCUCUAUCACGUACGCGUGAAAGAGAGAAGUGAACCAGAGAAACACACGUUGUGGUAUAUUACCUGGUA here?
Its self-cleavage is 0.826.

For GUCCUCUUUCAAGUGCGCGUGAAAGAGAGAAGUGAACCAGAGAAACACACGUUGUGGUAUAUUACCUCGUA, which self-cleavage is on record?
Its self-cleavage is 0.241.

Which self-cleavage does the source give for GUCCUCUUUCACGUGCGCGUGAAAGAGAUAAGUAAACCAGAGAAACACACGUUGUGGUAUAUUACCUGGUA here?
The self-cleavage was 0.0892.

For GUCCUCUUUCACGUGCGCGUGAAAGAGAGAAAUGAAGCAGAGAAACACACGUUGUGGUAUAUUACCUGGUA, which self-cleavage is on record?
Its self-cleavage is 0.0907.

Which self-cleavage does the source give for GUCCUCUUUCACGUGCGCGUGAAAGAGAGAAGUGAACCAGUGAAACACACGUUAUGGUAUAUUACCUGGUA here?
The self-cleavage was 1.03.

For GUCCUCUUUCACGUGCGCGUGAAAGAGAGAAGUGAACCAUAGAAACACCCGUUGUGGUAUAUUACCUGGUA, which self-cleavage is on record?
The self-cleavage was 0.118.

With GUCCUCUUUCACGAGCGCGUGAAAGAGAGAAGUGAACCAUAGAAACACACGUUGUGGUAUAUUACCUGGUA as the variant, how does the self-cleavage read?
Its self-cleavage is 0.127.

With GUCCUCUUUCACGUGCGCGUGAAAGAGAGAAAUGAACCAGAGAAACACACGUUGUGGUAUAUUACCUGAUA as the variant, how does the self-cleavage read?
Its self-cleavage is 0.0516.

For GUCCUCUUUCACGUGCGCGUGAAAGAAAGAAGUGAACCAGAGAAACACAUGUUGUGGUAUAUUACCUGGUA, which self-cleavage is on record?
Its self-cleavage is 0.124.

For GUCCUCUUUGACGUGCGCGUGAAAGAGAGAAGUGAACCAGAGAAACACACGUUGUGGUAUAAUACCUGGUA, which self-cleavage is on record?
Its self-cleavage is 0.0993.

Which self-cleavage does the source give for GUCCUCUUUCACGUGCGCGUGAAAGAGAGAAGUGAACCAGAGAAACUCACGUUGUGGUAUGUUACCUGGUA here?
The self-cleavage was 0.147.

With GUCCUCUUUCACGUGCGCGUGAAAGAGAGAAGUGAACCAGAGAAACAUACGUUGUGGUAUAUUACCUGAUA as the variant, how does the self-cleavage read?
Its self-cleavage is 0.178.

With GUCCUCUUUCACGUGCGCGUGAAAGAGAGAAGUGAACCAGAGAAACACACGUUUUGGUGUAUUACCUGGUA as the variant, how does the self-cleavage read?
The self-cleavage was 0.148.

With GUCCUCUUUCACGUGCGCUUGAAAGAGAGAAGUGAACCAGAGAGACACACGUUGUGGUAUAUUACCUGGUA as the variant, how does the self-cleavage read?
Its self-cleavage is 0.163.

For GUCCUCUUUCACGUGCGCGAGAAAGAGAGAAGUGAACCAGAGAAACACACGUUGUGGUAUAUUCCCUGGUA, which self-cleavage is on record?
The self-cleavage was 0.163.

For GUCCUCUUUCACGUGCGCGUGAAAGAGAGAACUGAACCAGAGAAACACACGUUGUGGUAUAUUACCUAGUA, which self-cleavage is on record?
Its self-cleavage is 0.097.

With GUCCUCUUUCACCUGCGCGUGAAAGAGAGAAGCGAACCAGAGAAACACACGUUGUGGUAUAUUACCUGGUA as the variant, how does the self-cleavage read?
The self-cleavage was 0.296.

For GUCCUCUUUCAGGUGCGCGUGAAAGAGAGAAGUGAACCAGAGAAACACACGUUGUGGUAUAUUGCCUGGUA, which self-cleavage is on record?
Its self-cleavage is 0.466.

Which self-cleavage does the source give for GUCCUCUUUCACGUGCGCGUGAAAGAGAGAAGUGAACCAGAGAAACACACGUAGUGGUAUAUUACCUAGUA here?
The self-cleavage was 0.279.

With GUCCUCUAUCACGUGCGCGUGAAAGACAGAAGUGAACCAGAGAAACACACGUUGUGGUAUAUUACCUGGUA as the variant, how does the self-cleavage read?
The self-cleavage was 0.186.

With GUCCUCUUUCACAUGCGCGUGAAAGAGAGAAGUUAACCAGAGAAACACACGUUGUGGUAUAUUACCUGGUA as the variant, how does the self-cleavage read?
The self-cleavage was 1.22.

Which self-cleavage does the source give for GUCCUCUUUCACGUGCGCGUGAAAGAAUGAAGUGAACCAGAGAAACACACGUUGUGGUAUAUUACCUGGUA here?
Its self-cleavage is 0.393.

Which self-cleavage does the source give for GUCCUCUUUCACGUGCGCGUGAAAGAGAGAGGUGAACCAGAGAAACACCCGUUGUGGUAUAUUACCUGGUA here?
The self-cleavage was 0.162.
